Assay results: publication PMC4728560 (Scientific Reports, 2016)
Entries after “also recorded” stand apart in the source; their conditions may differ.

Key:
[1] = target: T1, Bcl-xL (Homo sapiens, UniProt Q07817, DEL27-82); experiment: Heterocomplex formation with Bcl-xL (native MS, SEC-MALS, gel filtration); assay type: binding; settings: native MS: Bcl-xL(Δ27-81ΔCT), equimolar 100 μM, 30 °C, checked at 5 μM (for TCTP-R21A)
T1 construct: one containing the fragment 1-26, and the other the fragment 81-209; 6His (N, cleaved yes); made in house; host or cells: Escherichia coli BL21 (DE3) pRARE2
T1 sequence (Q07817 with tags, fused parts or gaps DEL27-82): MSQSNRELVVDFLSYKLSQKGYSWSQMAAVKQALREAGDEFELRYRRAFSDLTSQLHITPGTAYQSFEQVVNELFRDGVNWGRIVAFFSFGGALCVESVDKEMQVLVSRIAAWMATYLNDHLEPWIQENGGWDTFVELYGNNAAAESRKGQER
Protocol: When not specified, proteins tested for binding experiments were mixed at 100 μM, dialyzed against 10 mM CHES pH 9, 50 mM NaCl, 1 mM DTT or TCEP, depending on the analysis, and heated overnight at 30 °C.
For binding experiments, 100 to 200PL of protein mixture were loaded on a size exclusion chromatography (S200, GE Healthcare) column, while elution profiles were measured by UV absorption at 280 nm.
SEC-MALS experiments were performed on a multi-angle light scattering detector (miniDAWN TREOS, Wyatt Technologies) coupled in-line with SEC and an interferometric refractometer (Optilab T-rEX, Wyatt Technologies). See Supplementary Information for full details.
Prior to any mass spectrometry experiment, protein buffer was exchanged twice against a 50 mM ammonium acetate (NH4Ac) solution at pH 9.0 using microcentrifuge gel filtration columns (Zeba 0.5 ml, Thermo Scientific, Rockford, IL). Protein concentration was determined spectrophotometrically. […]
Supplementary Table 1. Measured molecular weights in denaturing conditions Sample Theoretical molecular Measured molecular Associated mass (Da) mass (Da) species […]
Gel filtration. For binding experiments, 100 to 200PL of protein mixture were loaded on a size exclusion chromatography (S200, GE Healthcare) column, while elution profiles were measured by UV absorption at 280nm. […]

[2] = tested on: thymocytes from TCTP^+/− mice; experiment: Complementation (viability) of γ-irradiated TCTP+/− thymocytes; assay type: cell-based, mouse; settings: γ-irradiation 2.5 Gy; overnight culture; 0 to 1000 nM
Description: Figure 4 Molecular/functional analysis of the h1 (P1) subregion of BH3-TCTP. […]
Peptides used for in vitro assays:
WT-TCTP (11-31): […]
R21A-TCTP (11-31): […]
Hybrid Bax/TCTP: […]
Peptides used for in vivo assays:
WT-TCTP (1-31) : […]
Hybrid Bax-TCTP: […]
TCTP-FLAG peptides used for in vivo assays:
WT-TCTP (1-31)-FLAG : […] DYKDDDDK-OH
TCTP-Bax-TCTP-FLAG: […]-OH […]
subdomain in the BH3 motif is underlined. Peptides were purchased from Smartox […]
Complementation and transduction experiments
In order to complement the haploinsufficient TCTP+/- mice with exogenous TCTP, we took advantage of the fact that the first N-terminal fragment of TCTP functions as a Protein Transduction Domain (PTD), enabling TCTP to penetrate into the cell by a mechanism hitherto […]
not well understood23,27-29. […]
of γ irradiation) and cultured, at a concentration of 10^7 cells/ml, overnight in the presence of […]
20) at concentrations ranging from 0-1000nM. For the transduction assays using WT-TCTP- […]
concentrations were 10 microM, 50 microM and 100 microM.
γ-irradiated thymocytes were fixed by adding 500ul of PFA 4% and incubated for 20 min at room temperature. The cells were washed twice with PBS and permeabilized for 10 min with 0.2% triton X-100 in PBS at room temp. The cells were washed twice with PBS. Proteins were blocked in Blocking buffer (1% BSA 0.5% Tween in PBS) 1h at room temperature. The primary antibody was added with blocking buffer and placed in a rotating wheel overnight in a cold room.
Cells were then washed 3 times with PBS and incubated with secondary antibody with blocking buffer 1h at room temperature. The cells were washed 3 times with PBS and suspended in 200 µL PBS and used for Flow Cytometry or further used for immunohistochemistry: 5 µl of each sample were mixed with 5 µl of ProLong® Gold antifade reagent (Life Technologies) and visualized, using the IX73 inverted fluorescence microscope and the cellSens™ Dimension […]
FACS analysis (BD Accuri™ C6 Cytometer (BD Biosciences) of incorporation of exogenous

Substance: TCTP: Translationally Controlled Tumor Protein (TCTP/tpt1), recombinant full-length
- complex formation with Bcl-xL [1]: forms a heterotetramer with Bcl-xL; also recorded: forms heterotetrameric complexes with Bcl-xL
- rescue of TCTP+/− haploinsufficient phenotype / anti-apoptotic function [2]: rescue completely the TCTP^+/− haploinsufficient phenotype
